In the supplement of paper PMC9112550, “Optimization of the antimicrobial peptide Bac7 by deep mutational scanning” (BMC Biology, 2022):

System: Escherichia coli TOP10
Assay: shrunken log2 fold change of peptide-encoding DNA abundance (4.5 h post-induction vs induction); higher = less antimicrobial activity (less host growth inhibition)
Conditions: time post-induction: 4.5 h; library: site-saturation at positions 5, 18, 19, 20
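Note: peptides expressed intracellularly from a pBAD plasmid library in pooled LB shake-flask culture, induced with 0.3% L-arabinose, DNA abundance read by NGS, three biological replicates, DESeq2 with apeglm shrinkage.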

Sequence | shrunken log2 fold change
RRIRDRPPRLPRPRPRPTIKPRP | -0.295
RRIRMRPPRLPRPRPRPMDWPRP | 0.15
RRIRFRPPRLPRPRPRPMISPRP | -0.446
RRIRWRPPRLPRPRPRPLIQPRP | 0.279
RRIRARPPRLPRPRPRPPFQPRP | 0.415
RRIRFRPPRLPRPRPRPLCPPRP | 0.016
RRIRFRPPRLPRPRPRPPAVPRP | 0.713
RRIRQRPPRLPRPRPRPHPQPRP | 0.24
RRIRPRPPRLPRPRPRPPGYPRP | 0.116
RRIRQRPPRLPRPRPRPAIFPRP | -0.0662
RRIRSRPPRLPRPRPRPYPRPRP | -0.45
RRIRVRPPRLPRPRPRPVKPPRP | 0.247
RRIRFRPPRLPRPRPRPQNAPRP | 0.0534
RRIRHRPPRLPRPRPRPRCWPRP | 0.145
RRIRYRPPRLPRPRPRPCQKPRP | -0.0134
RRIRRRPPRLPRPRPRPAHTPRP | 0.448
RRIRPRPPRLPRPRPRPTWDPRP | 0.42
RRIRIRPPRLPRPRPRPFWAPRP | -0.0374
RRIRFRPPRLPRPRPRPAKDPRP | 0.255
RRIRWRPPRLPRPRPRPPDYPRP | 0.184
RRIRERPPRLPRPRPRPKLWPRP | 0.582
RRIRCRPPRLPRPRPRPSYSPRP | -1.04
RRIRDRPPRLPRPRPRPWSHPRP | 0.0226
RRIRRRPPRLPRPRPRPFEGPRP | 0.0216
RRIRSRPPRLPRPRPRPVRWPRP | 0.893

Sequence | shrunken log2 fold change
RRIRVRPPRLPRPRPRPYKWPRP | -0.266
RRIRRRPPRLPRPRPRPEYIPRP | -0.199
RRIRVRPPRLPRPRPRPYQRPRP | -0.0149
RRIRSRPPRLPRPRPRPMHIPRP | -0.283
RRIRERPPRLPRPRPRPDWCPRP | 0.0337
RRIRMRPPRLPRPRPRPVLRPRP | 0.106
RRIRVRPPRLPRPRPRPKAAPRP | 0.1
RRIRPRPPRLPRPRPRPDEIPRP | -0.144
RRIRHRPPRLPRPRPRPTEKPRP | 0.0288
RRIRCRPPRLPRPRPRPCNFPRP | -0.0198
RRIRFRPPRLPRPRPRPSDDPRP | -0.106
RRIRYRPPRLPRPRPRPTDWPRP | -0.314
RRIRSRPPRLPRPRPRPHNEPRP | -0.382
RRIRMRPPRLPRPRPRPEHQPRP | 0.0185
RRIRCRPPRLPRPRPRPDWPPRP | 0.187
RRIRHRPPRLPRPRPRPLVWPRP | 0.482
RRIRGRPPRLPRPRPRPHQWPRP | 0.134
RRIRSRPPRLPRPRPRPNVTPRP | -0.0212
RRIRYRPPRLPRPRPRPLDKPRP | -0.0449
RRIRNRPPRLPRPRPRPNCKPRP | -0.424
RRIRWRPPRLPRPRPRPLIEPRP | 0.00804
RRIRMRPPRLPRPRPRPMLIPRP | -0.00481
RRIRGRPPRLPRPRPRPAPQPRP | 1.15
RRIRTRPPRLPRPRPRPHNMPRP | -0.651
RRIRPRPPRLPRPRPRPNPYPRP | -0.465
